Assay results as given in PMC2265524, “ruvA Mutants That Resolve Holliday Junctions but Do Not Reverse Replication Forks” (PLoS Genetics, 2008).
Residue numbers refer to the chain shown, from its start.

B1: F1 (fork, one arm single-stranded) (structured_DNA)
DNA 1: GACGCTGCCGAATTCTACCAGTGCCTTGCTAGGACATCTTTGCCCACCTGCAGGTTCACCC
DNA 2: ATGGATAGTCGGATCCTCTAGACAGCTCCATGTAGCAAGGCACTGGTAGAATTCGGCAGCGT
DNA 3: TGGGTGAACCTGCAGGTGGGCAAAGATGTCC
B2: F2 (fork, three double-stranded arms) (structured_DNA)
DNA 1: B1 DNA 1
DNA 2: B1 DNA 2
DNA 3: B1 DNA 3
DNA 4: CATGGAGCTGTCTAGAGGATCCGACTATCGA

Columns and labels:
RuvAz87 [1] = biological target: T1, RuvAz87 (Escherichia coli, UniProt P0A809 1-203, N79D;N100D); assay: EMSA; 5 mM EDTA; EMSA with ~4-5 ng labelled DNA; 5 mM EDTA (gel 0.5x TBE) or 3 mM MgCl2 without EDTA (gel 0.5x TB + 200 uM MgCl2); buffer as in cited ref 18; salt, pH and temperature not stated; conditions: protein: recombinant; chain copies: 4; label: 5' IRD700 on S24 (IT.01); fork of 3 strands; two arms double-stranded, one single-stranded (5' part of strand 2)
T1 sequence: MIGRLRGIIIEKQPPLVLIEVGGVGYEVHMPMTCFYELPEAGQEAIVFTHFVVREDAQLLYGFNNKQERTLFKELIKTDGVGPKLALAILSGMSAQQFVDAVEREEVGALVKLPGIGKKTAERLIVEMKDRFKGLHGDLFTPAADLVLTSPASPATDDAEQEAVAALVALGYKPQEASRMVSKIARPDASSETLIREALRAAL

RuvAz3 [2] = biological target: T2, RuvAz3 (Escherichia coli, UniProt P0A809 1-203, H29R;K129E;F140S); assay: as above; conditions: protein: recombinant; chain copies: 4; label: 5' IRD700 on S24 (IT.01); fork of 3 strands; two arms double-stranded, one single-stranded (5' part of strand 2)
T2 sequence: T1 sequence with H29R, D79N, D100N, K129E, F140S

RuvAz87 [3] = biological target: T1, RuvAz87; assay: EMSA; 3 mM Mg2+; EMSA with ~4-5 ng labelled DNA; 5 mM EDTA (gel 0.5x TBE) or 3 mM MgCl2 without EDTA (gel 0.5x TB + 200 uM MgCl2); buffer as in cited ref 18; salt, pH and temperature not stated; conditions: protein: recombinant; chain copies: 4; label: 5' IRD700 on S24 (IT.01); three-arm fork of 4 strands, all arms double-stranded
RuvAz3 [4] = biological target: T2, RuvAz3; assay: as above; conditions: protein: recombinant; chain copies: 4; label: 5' IRD700 on S24 (IT.01); three-arm fork of 4 strands, all arms double-stranded

| Binder | binding result (RuvAz87 [1]) | binding result (RuvAz3 [2]) | binding result (RuvAz87 [3]) | binding result (RuvAz3 [4]) |
| --- | --- | --- | --- | --- |
| B1 | no binding | no binding |  |  |
| B2 |  |  | no binding | no binding |
